Data as given in patent US20220041738A1 (SAITAMA MEDICAL UNIVERSITY, published 2022).

T1: Recombinant Human ALK2 Fc Chimera (Sino Biological Inc.) (human, UniProt Q04771 21-123)
T1 construct: Bought product; not shown: Fc of the bought chimera
T1 sequence: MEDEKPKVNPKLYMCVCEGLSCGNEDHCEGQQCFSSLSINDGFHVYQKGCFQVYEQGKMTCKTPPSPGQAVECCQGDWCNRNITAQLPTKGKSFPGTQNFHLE

T2: human ALK2 extracellular domain with C-terminal His tag (E. coli) (human, UniProt Q04771 21-123)
T2 construct: Expressed in E. coli SHuffle T7, purified to a single band of 12 kDa; also called ALK2-ECD; human ALK2-ECD; not shown: C-terminal His tag from pET-28b(+)
T2 sequence: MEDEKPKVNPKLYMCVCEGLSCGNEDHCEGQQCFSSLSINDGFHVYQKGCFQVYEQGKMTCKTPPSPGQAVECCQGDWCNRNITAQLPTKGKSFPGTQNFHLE


target: T1, Recombinant Human ALK2 Fc Chimera (Sino …); experiment: SPR, Biacore T200; antigen immobilised on CM5 chip, antibody as analyte; bivalent binding model
Procedure: The dissociation constants of humanized hA2-15A-H4/L6, humanized hA2-27D-H2/L2, and humanized hA2-27D-H3/L4 prepared in Example 8)-5 for the antigen (Recombinant Human ALK2 Fc Chimera, Sino Biological Inc.) were measured in Biacore T200 (GE Healthcare Bio-Sciences Corp.) by using the antigen immobilized as a ligand and each antibody as an analyte. The antigen was added at 1.25 μg/mL for 60 seconds and immobilized onto a sensor chip CM5 (GE Healthcare Bio-Sciences Corp.). The running buffer used was HBS-EP+(10 mM HEPES (pH 7.4), 0.15 M NaCl, 3 mM EDTA, and 0.05% Surfactant P20). Serially diluted solutions (0.2 to 50 nM) of the antibody were added onto the antigen-immobilized chip at a flow rate of 30 μl/min for 300 seconds. Subsequently, the dissociation phase was monitored for 1800 seconds. A 10 mM glycine/hydrochloric acid solution (pH 1.5) was added thereto as a regenerating solution at a flow rate of 10 μl/min for 30 seconds twice. The data was analyzed using bivalent binding models of analytical software (BIAevaluation software, version 1.0) to calculate an association rate constant ka, a dissociation rate constant kd, and a dissociation constant (KD; KD=kd/ka).

Kd [nM]	Binder
4.3	humanized hA2-15A-H4/L6 (antibody, human IgG1, Human IgG1, kappa; also called humanized A2-15A antibody (IgG1)) heavy: not shown light: DIVLTQSPDSLAVSLGERATINCRANQGVSLSRYNLMHWYQQKPGQKPKLLIYRSSNLAQGIPARFSGSGSGTDFTLTISSVQADDIAVYYCQQSRESPFTFGQGTKLELKRAVAAPSVFIFPPSDEQLKSGTASVVCLLNNFYPREAKVQWKVDNALQSGNSQESVTEQDSKDSTYSLSSTLTLSKADYEKHKVYACEVTHQGLSSPVTKSFNRGEC
5.7	humanized hA2-27D-H2/L2 (antibody, human IgG1, Human IgG1, kappa; also called humanized A2-27D antibody (IgG1)) heavy: not shown light: EIVLTQSPGTLSLSPGERATLSCLASSSVSYMTWYQQKPGQSPRLWIYGTSNLASGVPDRFSGSGSGTDFTLTISRLEPEDFAVYYCLHLTSYPPYTFGQGTKVEIKRAVAAPSVFIFPPSDEQLKSGTASVVCLLNNFYPREAKVQWKVDNALQSGNSQESVTEQDSKDSTYSLSSTLTLSKADYEKHKVYACEVTHQGLSSPVTKSFNRGEC
4.3	humanized hA2-27D-H3/L4 (antibody, human IgG1, Human IgG1, kappa; also called humanized A2-27D antibody (IgG1)) heavy: not shown light: EIVLTQSPGTMSASPGERVTLSCLASSSVSYMTWYQQKPGASPRLWIYGTSNLASGVPDRFSGSGSGTDYTLTISRMEPEDFATYYCLHLTSYPPYTFGAGTKLELKRAVAAPSVFIFPPSDEQLKSGTASVVCLLNNFYPREAKVQWKVDNALQSGNSQESVTEQDSKDSTYSLSSTLTLSKADYEKHKVYACEVTHQGLSSPVTKSFNRGEC

target: T2, human ALK2 extracellular domain with …; experiment: SPR, Biacore T200; antibody captured from culture supernatant by anti-human IgG (Fc), antigen as analyte; 1:1 binding model
Procedure: The dissociation constants of the humanized A2-11E antibodies (IgG1) and the humanized A2-25C antibodies (IgG1) prepared in Example 18)-5 for the antigen (human ALK2 extracellular domain prepared in Example 14)-1) were measured using Biacore T200 (GE Healthcare Bio-Sciences Corp.) by the capture method which involves capturing each antibody as a ligand onto an immobilized anti-human IgG (Fc) antibody and assaying the antigen as an analyte. Approximately 1000 RU of the anti-human IgG (Fc) antibody (Human Antibody Capture kit, GE Healthcare Bio-Sciences Corp.) was covalently bound to a sensor chip CM5 (GE Healthcare Bio-Sciences Corp.) by the amine coupling method. Similarly, this antibody was immobilized onto a reference cell. The running buffer used was HBS-EP+(10 mM HEPES (pH 7.4), 0.15 M NaCl, 3 mM EDTA, and 0.05% Surfactant P20). The culture supernatant containing the antibody was added onto the anti-human IgG (Fc) antibody-immobilized chip for approximately 1 minute. Then, serially diluted solutions (0.78 to 200 nM) of the antigen were added thereto at a flow rate of 30 μl/min for 300 seconds. Subsequently, the dissociation phase was monitored for 600 seconds. 3 M MgCl₂ was added thereto as a regenerating solution at a flow rate of 10 μl/min for 30 seconds. The data was analyzed using 1:1 binding models of analytical software (BIAevaluation software, version 1.0) to calculate an association rate constant ka, a dissociation rate constant kd, and a dissociation constant (KD; KD=kd/ka).

Binder	Kd [nM]
humanized hA2-11E-H3/L3 (antibody, human IgG1, kappa, V domains shown, Human IgG1, kappa; used as culture supernatant of FreeStyle 293F cells) VH: EVQLVESGGGLVQPGGSLRLSCAASGFTFSNYYMYWIRQAPGKGLEWVSSINTDGGSTYYADSVKGRFTISRDNSKNTVYLQMNSLRAEDTAVYYCAKSTPNIPLAYWGQGTLVTVSS VL: DIQMTQSPSSLSASVGDRVTITCKASQNIYKYLNWFQQKPGKAPKLLIYYSNSLQTGIPSRFSGSGSGTDFTLTISSLQPEDFATYYCFQYSSGPTFGQGTKVEIKR	47.4
humanized hA2-11E-H4/L4 (antibody, human IgG1, kappa, V domains shown, Human IgG1, kappa; used as culture supernatant of FreeStyle 293F cells) VH: EVQLVESGGGLVQPGGSLRLSCAASGFTFSNYYMYWIRQAPGKGLEWISSINTDGGSTYYPDSVKGRFTISRDNSKNTVYLQMNSLRAEDTAVYYCAKSTPNIPLAYWGQGTLVTVSS VL: DIQMTQSPSSLSASVGDRVTISCKASQNIYKYLNWFQQKPGEAPKLLIYYSNSLQTGIPSRFSGSGSGTDFTLTISSLQPEDFAIYFCFQYSSGPTFGPGTKVEIKR	11.1
humanized hA2-11E-H4/L2 (antibody, human IgG1, kappa, V domains shown, Human IgG1, kappa; used as culture supernatant of FreeStyle 293F cells) VH: EVQLVESGGGLVQPGGSLRLSCAASGFTFSNYYMYWIRQAPGKGLEWISSINTDGGSTYYPDSVKGRFTISRDNSKNTVYLQMNSLRAEDTAVYYCAKSTPNIPLAYWGQGTLVTVSS VL: DIQMTQSPSSLSASVGDRVTITCKASQNIYKYLNWFQQKPGKAPKLLIYYSNSLQTGVPSRFSGSGSGTDFTLTISSLQPEDFATYYCFQYSSGPTFGQGTKVEIKR	19.9
humanized hA2-11E-H3/L4 (antibody, human IgG1, kappa, V domains shown, Human IgG1, kappa; used as culture supernatant of FreeStyle 293F cells) VH: EVQLVESGGGLVQPGGSLRLSCAASGFTFSNYYMYWIRQAPGKGLEWVSSINTDGGSTYYADSVKGRFTISRDNSKNTVYLQMNSLRAEDTAVYYCAKSTPNIPLAYWGQGTLVTVSS VL: DIQMTQSPSSLSASVGDRVTISCKASQNIYKYLNWFQQKPGEAPKLLIYYSNSLQTGIPSRFSGSGSGTDFTLTISSLQPEDFAIYFCFQYSSGPTFGPGTKVEIKR	31.3
humanized hA2-11E-H3/L2 (antibody, human IgG1, kappa, V domains shown, Human IgG1, kappa; used as culture supernatant of FreeStyle 293F cells) VH: EVQLVESGGGLVQPGGSLRLSCAASGFTFSNYYMYWIRQAPGKGLEWVSSINTDGGSTYYADSVKGRFTISRDNSKNTVYLQMNSLRAEDTAVYYCAKSTPNIPLAYWGQGTLVTVSS VL: DIQMTQSPSSLSASVGDRVTITCKASQNIYKYLNWFQQKPGKAPKLLIYYSNSLQTGVPSRFSGSGSGTDFTLTISSLQPEDFATYYCFQYSSGPTFGQGTKVEIKR	63.1
humanized hA2-25C-H3/L2 (antibody, human IgG1, kappa, V domains shown, Human IgG1, kappa; used as culture supernatant of FreeStyle 293F cells) VH: EVQLVESGGGLVQPGGSLRLSCAASGFTFSYYAMSWVRQAPGKGLEWVASISRGGDNTYYRDSVKGRFTTSRDNSKNTLYLQMNSLRAEDTAVYYCARLNYNNYFDYWGQGTLVTVSS VL: DIQMTQSPSSLSASVGDRVTITCQASQDIGNWLSWYQQKPGKAPKLLIYGATSLADGVPSRFSGSRSGTDYTLTISSLQPEDFATYYCLQAYSAPFTFGQGTKVEIKR	53.3
humanized hA2-25C-H3/L1 (antibody, human IgG1, kappa, V domains shown, Human IgG1, kappa; used as culture supernatant of FreeStyle 293F cells) VH: EVQLVESGGGLVQPGGSLRLSCAASGFTFSYYAMSWVRQAPGKGLEWVASISRGGDNTYYRDSVKGRFTTSRDNSKNTLYLQMNSLRAEDTAVYYCARLNYNNYFDYWGQGTLVTVSS VL: DIQMTQSPSSLSASVGDRVTITCQASQDIGNWLSWYQQKPGKAPKLLIYGATSLADGVPSRFSGSGSGTDFTLTISSLQPEDFATYYCLQAYSAPFTFGQGTKVEIKR	116

Further lines, results first:

Kd [nM]	Binder
18.5	humanized hA2-11E-H4/L3 (antibody, human IgG1, kappa, V domains shown, Human IgG1, kappa; used as culture supernatant of FreeStyle 293F cells) VH: EVQLVESGGGLVQPGGSLRLSCAASGFTFSNYYMYWIRQAPGKGLEWISSINTDGGSTYYPDSVKGRFTISRDNSKNTVYLQMNSLRAEDTAVYYCAKSTPNIPLAYWGQGTLVTVSS VL: DIQMTQSPSSLSASVGDRVTITCKASQNIYKYLNWFQQKPGKAPKLLIYYSNSLQTGIPSRFSGSGSGTDFTLTISSLQPEDFATYYCFQYSSGPTFGQGTKVEIKR
56.7	humanized hA2-25C-H4/L2 (antibody, human IgG1, kappa, V domains shown, Human IgG1, kappa; used as culture supernatant of FreeStyle 293F cells) VH: EVQLVESGGGLVQPGGSLRLSCAASGFTFSYYAMSWVRQAPGKGLEWVASISRGGDNTYYRDSVKGRFTTSRDNSKNTLYLQMNSLRAEDTATYYCARLNYNNYFDYWGQGVLVTVSS VL: DIQMTQSPSSLSASVGDRVTITCQASQDIGNWLSWYQQKPGKAPKLLIYGATSLADGVPSRFSGSRSGTDYTLTISSLQPEDFATYYCLQAYSAPFTFGQGTKVEIKR
27.9	humanized hA2-25C-H4/L3 (antibody, human IgG1, kappa, V domains shown, Human IgG1, kappa; used as culture supernatant of FreeStyle 293F cells) VH: EVQLVESGGGLVQPGGSLRLSCAASGFTFSYYAMSWVRQAPGKGLEWVASISRGGDNTYYRDSVKGRFTTSRDNSKNTLYLQMNSLRAEDTATYYCARLNYNNYFDYWGQGVLVTVSS VL: DIQMTQSPSSLSASVGDRVTITCQASQDIGNWLSWYQQKPGKSPKLLIYGATSLADGVPSRFSGSRSGTQYTLTISSLQPEDFATYYCLQAYSAPFTFGSGTKVEIKR
81.8	humanized hA2-25C-H4/L1 (antibody, human IgG1, kappa, V domains shown, Human IgG1, kappa; used as culture supernatant of FreeStyle 293F cells) VH: EVQLVESGGGLVQPGGSLRLSCAASGFTFSYYAMSWVRQAPGKGLEWVASISRGGDNTYYRDSVKGRFTTSRDNSKNTLYLQMNSLRAEDTATYYCARLNYNNYFDYWGQGVLVTVSS VL: DIQMTQSPSSLSASVGDRVTITCQASQDIGNWLSWYQQKPGKAPKLLIYGATSLADGVPSRFSGSGSGTDFTLTISSLQPEDFATYYCLQAYSAPFTFGQGTKVEIKR
64.4	humanized hA2-25C-H3/L3 (antibody, human IgG1, kappa, V domains shown, Human IgG1, kappa; used as culture supernatant of FreeStyle 293F cells) VH: EVQLVESGGGLVQPGGSLRLSCAASGFTFSYYAMSWVRQAPGKGLEWVASISRGGDNTYYRDSVKGRFTTSRDNSKNTLYLQMNSLRAEDTAVYYCARLNYNNYFDYWGQGTLVTVSS VL: DIQMTQSPSSLSASVGDRVTITCQASQDIGNWLSWYQQKPGKSPKLLIYGATSLADGVPSRFSGSRSGTQYTLTISSLQPEDFATYYCLQAYSAPFTFGSGTKVEIKR
